The labels stand for the following.
B1: endothelial protein C receptor (EPCR), residues 16 to 210, biotinylated on the BAP tag (receptor)
chain: FCSQDASDGLQRLHMLQISYFRDPYHVWYQGNASLGGHLTHVLEGPDTNTTIIQLQPLQEPESWARTQSGLQSYLLQFHGLVRLVHQERTLAFPLTIRCFLGCELPPEGSRAHVFFEVAVNGSSFVSFRPERALWQADTQVTSGVVTFTLQQLNAYNRTRYELREFLEDTCVQYVQKHISAENTKGSQTSRSYTS

The target in assay [1] is HB3var03 CIDRα1.4 domain (E. coli, refolded) (Plasmodium falciparum). In words: SPR; wild type, data from ref. 8. (SPR reads the build-up and loss of mass on a sensor chip optically.)
Assay [2] deals with B1. Nature of the assay: SPR.

From article doi:10.1101/749432 (2019) come the findings set out here.

The Kd is the concentration at which binding is half-saturated. Lower therefore signals tighter binding. Broadly, the koff is the first-order rate constant of dissociation. High values mean fast dissociation, low ones slow dissociation. Regarding B1, in assay [1], the Kd came out at 0.4 nM and the koff is 0.000197 s⁻¹.

B2: synthetic binder (cys2 variant of design 469) (designed binder)
chain: NNWEQQKKNIEDDLDRYKKRAEELRKEAEKARKEARKTEDPTEEAKKEWEKRCKELEERARKLEDEAKDRVNDLFDSNFFQVIYSGDNDEEEWKKEKDRAEKEIEEWFKRIKEKCEEIKKRLEQ
modifications: biotin on the BAP tag (BirA)
B2 gave a koff in assay [2] of 0.000131 s⁻¹.
